Results reported in patent US20090118185A1 (UNIVERSITY OF ROCHESTER, published 2009).

Experiments:
[1] = tested on: 562(P4-P3′)336 factor VIII mutant (procofactor)
[2] = tested on: 336(P4-P3′)562 factor VIII mutant (procofactor)
[3] = tested on: 336(P4-P2)562 factor VIII mutant (procofactor)
[4] = tested on: 562(P4-P2)336 factor VIII mutant (procofactor)
[5] = tested on: 336(P1′-P3′)562 factor VIII mutant (procofactor)
[6] = target: T1, human activated protein C (human, UniProt P04070 43-197; P04070 212-461); assay: cell-based or functional assay
T1 sequence (P04070 43-197, chain 1 of 2): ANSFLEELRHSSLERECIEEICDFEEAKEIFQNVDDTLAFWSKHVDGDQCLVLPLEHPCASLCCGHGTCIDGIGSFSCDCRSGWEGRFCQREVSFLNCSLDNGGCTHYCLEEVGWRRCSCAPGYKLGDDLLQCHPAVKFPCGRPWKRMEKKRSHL
T1 sequence (P04070 212-461, chain 2 of 2): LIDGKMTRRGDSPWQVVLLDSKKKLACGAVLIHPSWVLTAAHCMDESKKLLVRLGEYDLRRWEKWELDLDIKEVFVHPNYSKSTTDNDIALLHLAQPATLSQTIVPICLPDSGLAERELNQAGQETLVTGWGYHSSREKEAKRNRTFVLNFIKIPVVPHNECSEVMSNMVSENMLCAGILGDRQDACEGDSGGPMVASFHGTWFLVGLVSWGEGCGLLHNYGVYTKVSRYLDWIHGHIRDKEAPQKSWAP

[7] = target: T1, human activated protein C; assay: Ki from competitive inhibition of APC cleavage against the literature Km (102 nM) of WT factor VIIIa for APC
Experimental: The amount of the A1336 (nM) generated over time was determined based on the amount of WT A1 substrate, calculated by subtracting the amount of the mutant A1 from the total amount of A1 subunit.
The rationale for this approach was that if proteinase binding to the mutant were unaffected, then it would efficiently compete with the WT substrate. Furthermore, since the mutant remains essentially uncleaved at the A1 site during a truncated time course, it would serve as an inhibitor of detected cleavage of the WT substrate.

[8] = target: T1, human activated protein C; assay: competitive inhibition of APC-catalysed cleavage of WT factor VIIIa A1 subunit by the mutant (0-200 nM); Western blot densitometry, fit to competitive inhibition model with Km 102 nM
Experimental: Aliquots were taken at various time points (0-20 min) and subjected to SDS-PAGE. […] The amount of the A1336 (nM) generated over time was determined based on the amount of WT A1 substrate, calculated by subtracting the amount of the mutant A1 from the total amount of A1 subunit.
Factor VIII (130 nM) was activated by addition of 10-20 nM thrombin in 20 mM HEPES pH 7.2, 100 mM NaCl, 5 mM CaCl₂, 0.01 % Tween 20, and 100 μg/ml bovine serum albumin (Buffer A) and reactions were run at 37° C. Thrombin was inhibited after 2 min by the addition of 10-20 U/ml hirudin, and the resultant factor VIIIa was reacted with APC (2 or 40 nM) in the presence of 100 μM phospholipid vesicles. Aliquots were removed at the indicated times to assess residual factor VIIIa activity by factor Xa generation assay and proteolysis of subunits by Western blotting.

[9] = target: T1, human activated protein C; assay: cell-based or functional assay; remark: listed apart in the source

Inactivation (nM FVIIIa/min/nM APC) [6] | fold Ki less than the Km for WT substrate [7] | Ki [8] | fold reduction of inactivation rate compared to WT factor VIIIa [9] | Molecule | rates of cleavage of factor VIII and the generation of factor VIIIa subunits [1] | rates of cleavage of factor VIII and the generation of factor VIIIa subunits [2] | rates of cleavage of factor VIII and the generation of factor VIIIa subunits [3] | rates of cleavage of factor VIII and the generation of factor VIIIa subunits [4] | rates of cleavage of factor VIII and the generation of factor VIIIa subunits [5]
– | – | – | – | α-thrombin | indistinguishable from that for WT factor VIII | indistinguishable from that for WT factor VIII | indistinguishable from that for WT factor VIII | indistinguishable from that for WT factor VIII | indistinguishable from that for WT factor VIII
0.8 nM FVIIIa/min/nM APC | ~3 fold | 36 nM | – | 336(P4-P3′)562 factor VIIIa mutant (other, residues 333-339 replaced by residues 559-565; also called fully substituted P4-P3′ mutant) chain 1: ATRRYYLGAVELSWDYMQSDLGELPVDARFPPRVPKSFPFNTSVVYKKTLFVEFTVHLFNIAKPRPPWMGLLGPTIQAEVYDTVVITLKNMASHPVSLHAVGVSYWKASEGAEYDDQTSQREKEDDKVFPGGSHTYVWQVLKENGPMASDPLCLTYSYLSHVDLVKDLNSGLIGALLVCREGSLAKEKTQTLHKFILLFAVFDEGKSWHSETKNSLMQDRDAASARAWPKMHTVNGYVNRSLPGLIGCHRKSVYWHVIGMGTTPEVHSIFLEGHTFLVRNHRQASLEISPITFLTAQTLLMDLGQFLLFCHISSHQHDGMEAYVKVDSCPEEVDQRGNQNEEAEDYDDDLTDSEMDVVRFDDDNSPSFIQIR chain 2: SVAKKHPKTWVHYIAAEEEDWDYAPLVLAPDDRSYKSQYLNNGPQRIGRKYKKVRFMAYTDETFKTREAIQHESGILGPLLYGEVGDTLLIIFKNQASRPYNIYPHGITDVRPLYSRRLPKGVKHLKDFPILPGEIFKYKWTVTVEDGPTKSDPRCLTRYYSSFVNMERDLASGLIGPLLICYKESVDQRGNQIMSDKRNVILFSVFDENRSWYLTENIQRFLPNPAGVQLEDPEFQASNIMHSINGYVFDSLQLSVCLHEVAYWYILSIGAQTDFLSVFFSGYTFKHKMVYEDTLTLFPFSGETVFMSMENPGLWILGCHNSDFRNRGMTALLKVSSCDKNTGDYYEDSYEDISAYLLSKNNAIEPR chain 3: SFQKKTRHYFIAAVERLWDYGMSSSPHVLRNRAQSGSVPQFKKVVFQEFTDGSFTQPLYRGELNEHLGLLGPYIRAEVEDNIMVTFRNQASRPYSFYSSLISYEEDQRQGAEPRKNFVKPNETKTYFWKVQHHMAPTKDEFDCKAWAYFSDVDLEKDVHSGLIGPLLVCHTNTLNPAHGRQVTVQEFALFFTIFDETKSWYFTENMERNCRAPCNIQMEDPTFKENYRFHAINGYIMDTLPGLVMAQDQRIRWYLLSMGSNENIHSIHFSGHVFTVRKKEEYKMALYNLYPGVFETVEMLPSKAGIWRVECLIGEHLHAGMSTLFLVYSNKCQTPLGMASGHIRDFQITASGQYGQWAPKLARLHYSGSINAWSTKEPFSWIKVDLLAPMIIHGIKTQGARQKFSSLYISQFIIMYSLDGKKWQTYRGNSTGTLMVFFGNVDSSGIKHNIFNPPIIARYIRLHPTHYSIRSTLRMELMGCDLNSCSMPLGMESKAISDAQITASSYFTNMFATWSPSKARLHLQGRSNAWRPQVNNPKEWLQVDFQKTMKVTGVTTQGVKSLLTSMYVKEFLISSSQDGHQWTLFFQNGKVKVFQGNQDSFTPVVNSLDPPLLTRYLRIHPQSWVHQIALRMEVLGCEAQDLY | – | – | – | – | –
0.5 nM FVIIIa/min/nM APC | – | – | 6 to 11 fold | 336(P4-P2)562 factor VIIIa mutant (other) chain 1: ATRRYYLGAVELSWDYMQSDLGELPVDARFPPRVPKSFPFNTSVVYKKTLFVEFTVHLFNIAKPRPPWMGLLGPTIQAEVYDTVVITLKNMASHPVSLHAVGVSYWKASEGAEYDDQTSQREKEDDKVFPGGSHTYVWQVLKENGPMASDPLCLTYSYLSHVDLVKDLNSGLIGALLVCREGSLAKEKTQTLHKFILLFAVFDEGKSWHSETKNSLMQDRDAASARAWPKMHTVNGYVNRSLPGLIGCHRKSVYWHVIGMGTTPEVHSIFLEGHTFLVRNHRQASLEISPITFLTAQTLLMDLGQFLLFCHISSHQHDGMEAYVKVDSCPEEVDQRMKNNEEAEDYDDDLTDSEMDVVRFDDDNSPSFIQIR chain 2: SVAKKHPKTWVHYIAAEEEDWDYAPLVLAPDDRSYKSQYLNNGPQRIGRKYKKVRFMAYTDETFKTREAIQHESGILGPLLYGEVGDTLLIIFKNQASRPYNIYPHGITDVRPLYSRRLPKGVKHLKDFPILPGEIFKYKWTVTVEDGPTKSDPRCLTRYYSSFVNMERDLASGLIGPLLICYKESVDQRGNQIMSDKRNVILFSVFDENRSWYLTENIQRFLPNPAGVQLEDPEFQASNIMHSINGYVFDSLQLSVCLHEVAYWYILSIGAQTDFLSVFFSGYTFKHKMVYEDTLTLFPFSGETVFMSMENPGLWILGCHNSDFRNRGMTALLKVSSCDKNTGDYYEDSYEDISAYLLSKNNAIEPR chain 3: SFQKKTRHYFIAAVERLWDYGMSSSPHVLRNRAQSGSVPQFKKVVFQEFTDGSFTQPLYRGELNEHLGLLGPYIRAEVEDNIMVTFRNQASRPYSFYSSLISYEEDQRQGAEPRKNFVKPNETKTYFWKVQHHMAPTKDEFDCKAWAYFSDVDLEKDVHSGLIGPLLVCHTNTLNPAHGRQVTVQEFALFFTIFDETKSWYFTENMERNCRAPCNIQMEDPTFKENYRFHAINGYIMDTLPGLVMAQDQRIRWYLLSMGSNENIHSIHFSGHVFTVRKKEEYKMALYNLYPGVFETVEMLPSKAGIWRVECLIGEHLHAGMSTLFLVYSNKCQTPLGMASGHIRDFQITASGQYGQWAPKLARLHYSGSINAWSTKEPFSWIKVDLLAPMIIHGIKTQGARQKFSSLYISQFIIMYSLDGKKWQTYRGNSTGTLMVFFGNVDSSGIKHNIFNPPIIARYIRLHPTHYSIRSTLRMELMGCDLNSCSMPLGMESKAISDAQITASSYFTNMFATWSPSKARLHLQGRSNAWRPQVNNPKEWLQVDFQKTMKVTGVTTQGVKSLLTSMYVKEFLISSSQDGHQWTLFFQNGKVKVFQGNQDSFTPVVNSLDPPLLTRYLRIHPQSWVHQIALRMEVLGCEAQDLY | – | – | – | – | –
